# Ends that are not written are not given here.
# T1: natural proline-rich peptide ligand C3G, PPPALPPKKR (peptide SEQ ID NO: 11)
# T1 peptide: PPPALPPKKR-NH2
# B1: synthetic c-Crk N-terminal SH3 domain obtained by native chemical ligation of peptide thioester SEQ ID NO: 9 and peptide SEQ ID NO: 10 (other)
# chain: AEYVRALFDFNGNDEEDLPFKKGCILRIRDKPEEQWWNAEDSEGKRGMIPVPYVEKYG
# modifications: N-terminal acetyl (Ac-AEYV...); C-terminal amide implied (peptide SEQ ID NO: 10 made on Rink-amide resin); Cys introduced at the N-terminus of SEQ ID NO: 10 (ligation site); the -SEt thioester of SEQ ID NO: 9 is lost on ligation
# notes: used at 0.5 uM in 20 mM sodium phosphate, 100 mM NaCl, pH 7.2; ESMS found 6894.1 Da (calculated 6891.7 Da); also called ligated SH3 domain; synthetic SH3 domain
# Target: T1, natural proline-rich peptide ligand …
# Assay: fluorescence-based titration (excitation 300 nm, emission 348 nm), 25 C, 0.5 uM protein, 1:1 complex assumed
# Protocol: The ligated product is marked with an asterisk. […] The ligation product was by far the main product and could be easily isolated by semipreparative HPLC. Referring to FIG. 6B, characterization of the product by ES-MS confirmed the identity of the SH3 ligated domain. The ligated SH3 domain was readily purified by HPLC and refolded by flash dilution in 20 mM sodium phosphate, 100 mM NaCl at pH 7.2. The ligand binding activity of the synthetic SH3 domain was evaluated using a fluorescence-based titration assay. […] Referring to FIG. 6C, the equilibrium dissociation constant for binding of the synthetic SH3 domain to the natural proline-rich peptide ligand C3G i.e., […] (peptide SEQ ID NO: 11), was 0.9 μM. […]
# Fluorescence-based Ligand Binding Assay. The equilibrium dissociation binding constant of synthetic SH3 domain for ligand SEQ ID NO: 11 was obtained using a fluorescence-based titration assay. […] Excitation was at 300 nm with a 2.5 nm slit and the fluorescence emission was monitored at 348 nm through a 5 nm slit. […] The dissociation constant was determined by changes in the fluorescence of the protein solution upon addition of the corresponding peptide ligand at defined concentrations; calculations were made assuming formation of a 1:1 complex. […]
binder,measurement,value
B1,Kd,900 nM

# Reference: US20070129537A1 (University of California, published 2007)
